# Laboratory results as given in patent publication US20210115154A1 (Chugai, published 2021).
# T1: human MASP-1 (human, UniProt P48740 20-699)
# T1 sequence: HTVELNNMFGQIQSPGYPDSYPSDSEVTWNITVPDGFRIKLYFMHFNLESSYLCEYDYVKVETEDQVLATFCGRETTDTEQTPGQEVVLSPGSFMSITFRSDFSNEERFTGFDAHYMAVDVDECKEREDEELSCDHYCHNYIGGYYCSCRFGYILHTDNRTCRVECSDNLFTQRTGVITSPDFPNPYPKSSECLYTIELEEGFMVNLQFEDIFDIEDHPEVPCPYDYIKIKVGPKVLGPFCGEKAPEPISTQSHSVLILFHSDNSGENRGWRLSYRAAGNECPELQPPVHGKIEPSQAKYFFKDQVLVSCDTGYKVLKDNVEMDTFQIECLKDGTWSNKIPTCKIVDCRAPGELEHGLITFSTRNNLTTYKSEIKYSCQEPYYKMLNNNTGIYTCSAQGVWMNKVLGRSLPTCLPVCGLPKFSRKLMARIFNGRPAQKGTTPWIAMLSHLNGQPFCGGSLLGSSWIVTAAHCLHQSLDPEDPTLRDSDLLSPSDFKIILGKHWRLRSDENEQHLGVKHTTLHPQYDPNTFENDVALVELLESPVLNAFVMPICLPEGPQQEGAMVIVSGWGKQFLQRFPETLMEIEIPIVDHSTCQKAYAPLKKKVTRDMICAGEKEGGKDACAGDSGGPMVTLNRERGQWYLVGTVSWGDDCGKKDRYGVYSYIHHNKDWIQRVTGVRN
# T2: Human MASP-3 (CCP1-CCP2-SP S664A) (human, labelled with NHS-PEG4-Biotin (sites not given))
# T2 construct: Biotinylated for the cross-reactivity ELISA; also called N-terminally Flag-tagged human MASP-3 (CCP1-CCP2-SP S664A); not shown: N-terminal Flag-tag
# T2 chain: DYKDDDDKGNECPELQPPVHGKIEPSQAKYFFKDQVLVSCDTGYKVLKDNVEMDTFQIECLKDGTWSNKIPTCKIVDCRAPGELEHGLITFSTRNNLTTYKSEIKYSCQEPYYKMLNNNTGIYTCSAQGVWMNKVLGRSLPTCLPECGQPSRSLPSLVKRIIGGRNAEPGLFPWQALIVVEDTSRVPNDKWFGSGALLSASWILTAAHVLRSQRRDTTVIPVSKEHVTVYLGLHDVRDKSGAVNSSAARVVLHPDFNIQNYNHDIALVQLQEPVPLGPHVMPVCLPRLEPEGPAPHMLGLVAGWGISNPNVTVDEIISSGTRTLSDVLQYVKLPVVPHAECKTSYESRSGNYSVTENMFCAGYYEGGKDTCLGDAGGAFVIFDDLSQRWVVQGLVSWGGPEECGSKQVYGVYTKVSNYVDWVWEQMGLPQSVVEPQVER
# T3: Human MASP-1 (CCP1-CCP2-SP S646A) (human, UniProt P48740 298-699, labelled with NHS-PEG4-Biotin (sites not given))
# T3 construct: biotinylated for the ELISAs; also called N-terminally Flag-tagged human MASP-1 (CCP1-CCP2-SP S646A); not shown: N-terminal Flag-tag
# T3 sequence: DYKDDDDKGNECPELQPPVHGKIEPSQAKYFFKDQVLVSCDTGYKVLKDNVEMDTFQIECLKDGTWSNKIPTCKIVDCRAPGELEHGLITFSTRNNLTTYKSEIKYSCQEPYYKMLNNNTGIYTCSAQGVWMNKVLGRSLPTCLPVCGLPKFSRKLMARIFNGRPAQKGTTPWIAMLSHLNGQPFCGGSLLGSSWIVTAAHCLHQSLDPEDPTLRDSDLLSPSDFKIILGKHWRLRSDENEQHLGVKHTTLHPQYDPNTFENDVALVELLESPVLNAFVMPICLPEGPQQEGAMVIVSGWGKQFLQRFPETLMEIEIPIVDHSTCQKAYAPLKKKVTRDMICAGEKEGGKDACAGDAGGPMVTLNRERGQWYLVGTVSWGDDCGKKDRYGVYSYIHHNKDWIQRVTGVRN
# Tests used:
# human MASP-1 = molecular target: T1, human MASP-1; assay: cell-based or functional assay
# [1] = molecular target: T2, Human MASP-3 (CCP1-CCP2-SP S664A); assay: ELISA, antibody captured by goat anti-human IgG, 8 nM biotinylated antigen, streptavidin-HRP
# Method: (§1) ELISA assay was used to check the cross-reactivity of the chimeric monoclonal antibodies generated in 3.1 against human MASP-1 and human MASP-3. Goat anti-human IgG polyclonal antibody (Thermo Scientific, H10500) was diluted to 1 micro g/ml with PBS (-) and added to 384-well MAXISorp plates (Nunc, Cat No. 164688). The plates were incubated for 1 hour at room temperature, and blocked with Blocking One (Nacalai Tesque, Cat No. 03953-95) diluted 5 times. The plates were incubated for 1 hour, washed, and anti-MASP-1 antibody was added and incubated for 1 hour. Human MASP-1 (CCP1-CCP2-SP S646A) or human MASP-3 (CCP1-CCP2-SP S664A) was labelled with NHS-PEG4-Biotin (PIERCE, Cat No. 21329). After incubation, the plates were washed and 8 nM of labeled antigen was added and incubated for 1 hour. After incubation, the plates were washed and Streptavidin-HRP conjugate (Thermo Scientific 21130) were added. After 1 hour incubation, binding of biotinylated antigen was detected by the addition of ABTS (KPL, Cat No. 50-66-06). Anti-MASP-1 monoclonal antibodies listed in Table 5 were selected as MASP-1 specific antibodies and used for further analysis.
# [2] = molecular target: T3, Human MASP-1 (CCP1-CCP2-SP S646A); assay: as above
# Method: as §1
"IC50 of inhibition of human C4c deposition (C4c ELISA, normal human serum on mannan) (human MASP-1)",absorbance at 405 nm after background subtraction (absorbance at 405 nm) [1],absorbance at 405 nm after background subtraction [2],absorbance at 405 nm after background subtraction [1],Binder
3.29 µg/mL,0.388,0.898 absorbance at 405 nm,,"MAS0177hh (antibody, human IgG4 S228P, kappa, V domains shown, Rabbit/human chimeric antibody: rabbit variable regions recombined with F760G4 and kOMTC constant regions; also called anti-MASP-1 chimeric mAb MAS0177hh) VH: QSVEESGGRLVTPGTPLTLTCTASGFSLSSAYMNWVRQAPGKGLEWIGIIYASGSTWYASWAKGRFTISKTSTTVDLKITSPTTEDTATYFCARDDYGTADLWGPGTLVTVSS VL: AVVLTQTASPVSAPVGGTVTIKCQASQSIGSSLAWYQQKPGQSPKLLIYGASTLVSGVSSRFSGSRSGTEFSLTISDLECADAATYYCQNYYLSSSSADRRTFGGGTKVEIKR"
0.29 µg/mL,,1.98 absorbance at 405 nm,-0.027 absorbance at 405 nm,"MAS0102dd (antibody, human IgG4 S228P, kappa, V domains shown, Rabbit/human chimeric antibody: rabbit variable regions recombined with F760G4 and kOMTC constant regions; also called anti-MASP-1 chimeric mAb MAS0102dd) VH: QSVEESGGRLVTPGTPLTLTCTVSGFSLSSYAMSWVRQAPGKGLEWIGIITNLDNTYYANWAKGRFTISKTSTTVDLKITSPTTEDTAAYLCARERIKRKYSYDDYGGWAFDPWGPGTLVTVSS VL: QVLTQTPSSVSGPVGGTVTINCQAIENIYRSLAWYQQKPGQPPKLLIYDTSDLASGVPSRFSGSGSGTEYTLTISGVQCDDAATYYCQSYYYSSVTYNAFGGGTKVEIKR"
0.11 µg/mL,,1.95 absorbance at 405 nm,0.078 absorbance at 405 nm,"MAS0154dd (antibody, human IgG4 S228P, kappa, V domains shown, Rabbit/human chimeric antibody: rabbit variable regions recombined with F760G4 and kOMTC constant regions; also called anti-MASP-1 chimeric mAb MAS0154dd) VH: QSVEESGGRLVTPGTPLTLTCTVSGFSLSNYNMGWVRQAPGEGLEYIGIISSQGDIYYATWAKGRFTISKTSTTVDLKITSPTTEDTATYFCARARHVGSAADSYFHLWGLGTLVTVSS VL: AVVLTQTASPVSAAVGGTVTINCQASEEIYRNLAWYQQKPGQRPKLLIYGASNLASGVPSRFSGSGSGTEYTLTISDLECADAATYYCQRYAWGKNSADGNTFGGGTKVEIKR"
0.45 µg/mL,,1.51 absorbance at 405 nm,-0.147 absorbance at 405 nm,"MAS0141aa (antibody, human IgG4 S228P, kappa, V domains shown, Rabbit/human chimeric antibody: rabbit variable regions recombined with F760G4 and kOMTC constant regions; also called anti-MASP-1 chimeric mAb MAS0141aa) VH: QSVEESGGRLVTPGTPLTLTCTASGFSLINYYMTWVRQAPGKGLEWIGIINTDGGTYYASWAKGRFTISRTSTTVDLKMTSLTTEDTATYFCARGVFTGGWTGMRTNLWGPGTLVTVSS VL: DVVMTQTPASVEAAVGGTVTIKCQASEDIYILLAWYQQKPGQPPKLLIYAASNLESGVPSRFKGSGSGTEFTLTISDLECADAATYYCQCTYGSSSSNAFGGGTKVEIKR"
0.47 µg/mL,,1.72 absorbance at 405 nm,0.055 absorbance at 405 nm,"MAS0116aa (antibody, human IgG4 S228P, kappa, V domains shown, Rabbit/human chimeric antibody: rabbit variable regions recombined with F760G4 and kOMTC constant regions; also called anti-MASP-1 chimeric mAb MAS0116aa) VH: QSLEESGGRLVTPGTPLTLTCTASGFSLSSCYMSWVRQAPGEGLEWIGTIYTGSGATYYASWAKGRFTVSITSTTVDLKITSPTTEDTATYFCARAIYPGSSSSNLCAFDLWGPGTLVTVSS VL: QVLTQTPASVSAAVGGTVTINCQASQSVYDNNWLAWYQQKPGQPPKLLIYQASSLASGVPSRFKGSGSGAQFTLTISDLECDDAATYFCQGYYAGVLYSFGGGTKVEIKR"
0.14 µg/mL,,1.79 absorbance at 405 nm,-0.068 absorbance at 405 nm,"MAS0114bb (antibody, human IgG4 S228P, kappa, V domains shown, Rabbit/human chimeric antibody: rabbit variable regions recombined with F760G4 and kOMTC constant regions; also called anti-MASP-1 chimeric mAb MAS0114bb) VH: QSVEESGGRLVTPGTPLTLTCTASGFDINNYAIHWVRQAPGEGLEWIGYIYARSGVTWYASWVKGRFTISKTSTTVDLKMTSLTTEDTATYFCARVLAGGGYANTGLSLWGPGTLVTVSS VL: DIVMTQTPSSVSAAVGGTVTIKCQASQNIGYSSAWYQQKPGQRPKLMIYGASTLASGVPSRFSGSGSGTEYTLTISGVQCDDAATYYCQSNYISSGSVDGTFGGGTKVEIKR"
